These results are taken from PMC4433160.

Data set [1] concerns the target T1, human beta defensin 2 (HBD2) (human, UniProt O15263 24-64).
T1 chain: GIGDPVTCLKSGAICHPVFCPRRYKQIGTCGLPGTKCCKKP
As to the kind of experiment: microscopy of complex.

Data set [2] has as its target T2, human beta defensin 3 (HBD3) (human, UniProt P81534 23-67).
T2 chain: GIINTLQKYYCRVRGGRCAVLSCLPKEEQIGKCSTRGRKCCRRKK
The data set can be described thus: aggregate formation.

Turning to GGTGCATCGATGCAGGGGGG (ssDNA, phosphorothioate at some nucleotides (underlining lost in text)) [FITC-CpG ODN D35], the binding result in data set [1] is “binds”.

For ATCGACTCTCGAGCGTTCTC (ssDNA, phosphorothioate (underlining lost in text)) [CpG ODN K3], the binding result in data set [2] is given as “binds”.
